B1: MKK6 D-site peptide / p38-alpha (MAPK14) L195A, full length (parent complex)
chain 1: SQSKGKKRNPGLKIPKEAFEQP
chain 2: MSQERPTFYRQELNKTVWEVPERYQNLSPVGSGAYGSVCAAFDTKTGHRVAVKKLSRPFQSIIHAKRTYRELRLLKHMKHENVIGLLDVFTPARSLEEFNDVYLVTHLMGADLNNIVKCQKLTDDHVQFLIYQILRGLKYIHSADIIHRDLKPSNLAVNEDCELKILDFGLARHTDDEMTGYVATRWYRAPEIMANWMHYNQTVDIWSVGCIMAELLTGRTLFPGTDHIDQLKLILRLVGTPGAELLKKISSESARNYIQSLAQMPKMNFANVFIGANPLAVDLLEKMLVLDSDKRITAAQALAHAYFAQYHDPDDEPVAEPYDQSFESRDFLIDEWKSLTYDEVISFVPPPLDQEEMES

Variants of: B1

Variant | screen value
chain 1 SQSKGKKRAPGLAIPKEAFEQP [chain 1 N9A, chain 1 K13A] | -0.689 Z-score of the enrichment rate within one screen of 711 sequences
chain 1 SQNKGKKRNPGLKIPKEAFEQP [chain 1 S3N] | 1.29 Z-score of the enrichment rate within one screen of 711 sequences
chain 1 SQPKGKKRNPGLKIPKEAFEQP [chain 1 S3P] | 1.6 Z-score of the enrichment rate within one screen of 711 sequences
chain 1 SQSKGKKRNPGLKWPKEAFEQP [chain 1 I14W] | -0.82 Z-score of the enrichment rate within one screen of 711 sequences
chain 1 SQSKGKKRNPGLKPPKEAFEQP [chain 1 I14P] | -0.823 Z-score of the enrichment rate within one screen of 711 sequences
chain 1 SQSKGKKRNPGLKGPKEAFEQP [chain 1 I14G] | -1.29 Z-score of the enrichment rate within one screen of 711 sequences
chain 1 SQSKGDKRNPGLKIPKEAFEQP [chain 1 K6D] | 0.0134 Z-score of the enrichment rate within one screen of 711 sequences
chain 1 SQAKGKKRNPGLAIPKEAFEQP [chain 1 S3A, chain 1 K13A] | -0.319 Z-score of the enrichment rate within one screen of 711 sequences
chain 1 SQSKGKKRNPGLKIPAEAFEQP [chain 1 K16A] | 0.957 Z-score of the enrichment rate within one screen of 711 sequences
chain 1 SQSKGKKRNPGLKIPIEAFEQP [chain 1 K16I] | 1.8 Z-score of the enrichment rate within one screen of 711 sequences
chain 1 SQSKKKKRNPGLKIPKEAFEQP [chain 1 G5K] | 2.33 Z-score of the enrichment rate within one screen of 711 sequences
chain 1 SQSKGKKRTPGLKIPKEAFEQP [chain 1 N9T] | 0.467 Z-score of the enrichment rate within one screen of 711 sequences
chain 1 SQSKGKKRKPGLKIPKEAFEQP [chain 1 N9K] | 1.98 Z-score of the enrichment rate within one screen of 711 sequences
chain 1 SQSKGKKANPGLKIPAEAFEQP [chain 1 R8A, chain 1 K16A] | -0.602 Z-score of the enrichment rate within one screen of 711 sequences
chain 1 SQSKGKKANPALKIPKEAFEQP [chain 1 R8A, chain 1 G11A] | -0.109 Z-score of the enrichment rate within one screen of 711 sequences
chain 1 SQSKGKKRNCGLKIPKEAFEQP [chain 1 P10C] | 0.201 Z-score of the enrichment rate within one screen of 711 sequences
chain 1 SQSKGKKRNLGLKIPKEAFEQP [chain 1 P10L] | 1.79 Z-score of the enrichment rate within one screen of 711 sequences

Variant | screen value
chain 1 SQSKGKKRNYGLKIPKEAFEQP [chain 1 P10Y] | 0.723 Z-score of the enrichment rate within one screen of 711 sequences
chain 1 SQSKGKKRNPFLKIPKEAFEQP [chain 1 G11F] | 1.14 Z-score of the enrichment rate within one screen of 711 sequences
chain 1 SQSKGKKRNPALKIPKEAFEQP [chain 1 G11A] | 1.13 Z-score of the enrichment rate within one screen of 711 sequences
chain 1 SQSKGKKRNPRLKIPKEAFEQP [chain 1 G11R] | 1.68 Z-score of the enrichment rate within one screen of 711 sequences
chain 1 SQSKGKKRNPMLKIPKEAFEQP [chain 1 G11M] | 1.24 Z-score of the enrichment rate within one screen of 711 sequences
chain 1 SQSKGKKRNPYLKIPKEAFEQP [chain 1 G11Y] | 1.26 Z-score of the enrichment rate within one screen of 711 sequences
chain 1 SQSKGKKRNPGLKIRKEAFEQP [chain 1 P15R] | 1.68 Z-score of the enrichment rate within one screen of 711 sequences
chain 1 SQSKGKKRNPGLKIKKEAFEQP [chain 1 P15K] | 1.65 Z-score of the enrichment rate within one screen of 711 sequences
chain 1 SQSKGKKRAPALKIPKEAFEQP [chain 1 N9A, chain 1 G11A] | 1.02 Z-score of the enrichment rate within one screen of 711 sequences
chain 1 SQSKGKKRNPGVKIPKEAFEQP [chain 1 L12V] | -0.424 Z-score of the enrichment rate within one screen of 711 sequences
chain 1 SQSKGKKRNPGKKIPKEAFEQP [chain 1 L12K] | -1.3 Z-score of the enrichment rate within one screen of 711 sequences
chain 1 SQSKGKKRNPGFKIPKEAFEQP [chain 1 L12F] | -0.853 Z-score of the enrichment rate within one screen of 711 sequences
chain 1 SQSHGKKRNPGLKIPKEAFEQP [chain 1 K4H] | 0.888 Z-score of the enrichment rate within one screen of 711 sequences
chain 1 SQSIGKKRNPGLKIPKEAFEQP [chain 1 K4I] | 0.786 Z-score of the enrichment rate within one screen of 711 sequences
chain 1 SQSDGKKRNPGLKIPKEAFEQP [chain 1 K4D] | -0.172 Z-score of the enrichment rate within one screen of 711 sequences
chain 1 SQSPGKKRNPGLKIPKEAFEQP [chain 1 K4P] | -0.0666 Z-score of the enrichment rate within one screen of 711 sequences

The remaining lines, values ahead:

screen value | Variant
-0.809 Z-score of the enrichment rate within one screen of 711 sequences | chain 1 SQSKGKKRNPGLAIPAEAFEQP [chain 1 K13A, chain 1 K16A]
1.84 Z-score of the enrichment rate within one screen of 711 sequences | chain 1 SQCKGKKRNPGLKIPKEAFEQP [chain 1 S3C]
0.932 Z-score of the enrichment rate within one screen of 711 sequences | chain 1 SQDKGKKRNPGLKIPKEAFEQP [chain 1 S3D]
-1.38 Z-score of the enrichment rate within one screen of 711 sequences | chain 1 SQSKGKKRNPGLKSPKEAFEQP [chain 1 I14S]
-0.906 Z-score of the enrichment rate within one screen of 711 sequences | chain 1 SQSKGKKRNPGLKNPKEAFEQP [chain 1 I14N]
1.9 Z-score of the enrichment rate within one screen of 711 sequences | chain 1 SQSKGRKRNPGLKIPKEAFEQP [chain 1 K6R]
0.527 Z-score of the enrichment rate within one screen of 711 sequences | chain 1 SQSKGPKRNPGLKIPKEAFEQP [chain 1 K6P]
-0.606 Z-score of the enrichment rate within one screen of 711 sequences | chain 1 SQSKGEKRNPGLKIPKEAFEQP [chain 1 K6E]
-0.827 Z-score of the enrichment rate within one screen of 711 sequences | chain 1 SQSKGKKRNPGLKIPDEAFEQP [chain 1 K16D]
4.45 Z-score of the enrichment rate within one screen of 711 sequences | chain 1 SQSKWKKRNPGLKIPKEAFEQP [chain 1 G5W]
2.63 Z-score of the enrichment rate within one screen of 711 sequences | chain 1 SQSKMKKRNPGLKIPKEAFEQP [chain 1 G5M]
-0.878 Z-score of the enrichment rate within one screen of 711 sequences | chain 1 SQSKGKKANPGLKAPKEAFEQP [chain 1 R8A, chain 1 I14A]
-0.76 Z-score of the enrichment rate within one screen of 711 sequences | chain 1 SQSKGKKANPGAKIPKEAFEQP [chain 1 R8A, chain 1 L12A]
1.77 Z-score of the enrichment rate within one screen of 711 sequences | chain 1 SQSKGKKRPPGLKIPKEAFEQP [chain 1 N9P]
0.752 Z-score of the enrichment rate within one screen of 711 sequences | chain 1 SQSKGKKRSPGLKIPKEAFEQP [chain 1 N9S]
1.51 Z-score of the enrichment rate within one screen of 711 sequences | chain 1 SQSKGKKRHPGLKIPKEAFEQP [chain 1 N9H]
0.848 Z-score of the enrichment rate within one screen of 711 sequences | chain 1 SQSKGKKRNPGLKIGKEAFEQP [chain 1 P15G]
0.418 Z-score of the enrichment rate within one screen of 711 sequences | chain 1 SQSKGKKRNPGLKIEKEAFEQP [chain 1 P15E]
0.93 Z-score of the enrichment rate within one screen of 711 sequences | chain 1 SQSKGKKRNPGLKIYKEAFEQP [chain 1 P15Y]
-1.31 Z-score of the enrichment rate within one screen of 711 sequences | chain 1 SQSKGKKRNPGAKIPKEAFEQP [chain 1 L12A]
-0.861 Z-score of the enrichment rate within one screen of 711 sequences | chain 1 SQSKGKKRNPGGKIPKEAFEQP [chain 1 L12G]
-1.37 Z-score of the enrichment rate within one screen of 711 sequences | chain 1 SQSKGKKRNPGNKIPKEAFEQP [chain 1 L12N]
0.981 Z-score of the enrichment rate within one screen of 711 sequences | chain 1 SQSVGKKRNPGLKIPKEAFEQP [chain 1 K4V]
1.02 Z-score of the enrichment rate within one screen of 711 sequences | chain 1 SQSQGKKRNPGLKIPKEAFEQP [chain 1 K4Q]
1.08 Z-score of the enrichment rate within one screen of 711 sequences | chain 1 SQSFGKKRNPGLKIPKEAFEQP [chain 1 K4F]
